Experimental data from patent US10006010B2, “Cytochrome P450 fusion protein” (The University of York, priority 2014, dated 2018).

Tests used:
Type in all cases: biochemical
[1] = Recombinant oxidoreductase enzyme assay (E. coli-expressed, purified), substrate 1,2-dehydroreticuline
Method: (§1) The coding sequences of oxidoreductase A and B (Seq ID NO 6 and NO 10, respectively) were codon optimised for expression in E. coli and the synthetic genes were cloned into the vector pET28 to yield a recombinant C-terminal 6×-His tagged enzymes (GenScript, Piscataway, N.J., USA). The constructs were transformed into E. coli Arctic express strain (Agilent Technologies, Wokingham, UK). Per construct, 3-5 freshly transformed Arctic express E. coli colonies were pre-inoculated in 10 mL 2YT medium containing 100 mg/L kanamycin and 20 mg/L gentamycin and incubated at 37° C. overnight. A 5-mL aliquot was used to inoculate 500 mL of the above medium not containing antibiotics and cells were allowed to grow at 30° C. until OD600=0.5-0.7. A 1-mL aliquot of the uninduced cells was removed and spun down at 14,000×g and the cell pellet was lysed in SDS-PAGE sample buffer. 1 mM IPTG was added to the culture and then incubated at 20° C. for 24 h. Cells were then harvested following a 5 min spin at 5,000×g and resuspended in 20 mL ice-cold extraction buffer (0.1 M Tris pH 8, 0.3 M NaCl, 0.1% (v/v) Tween 20 and Halt EDTA-free protease inhibitor cocktail (Pierce/Thermoscientific, Cramlington, UK)). Bacterial suspensions were lysed in a French Press at 4° C. using a 25 kpsi disruption cycle (Model TS0.75 KU, Constant Cell Disruption Systems, Daventry, UK). Cell lysates were then spun down at 12,000×g for 20 min at 4° C. and thus fractionated into supernatant (soluble fraction) and pellet.
(§2) A 20 mL soluble fraction was filtered through a 0.45 μm syringe filter and the His-tagged proteins were purified using a His Trap Fast Flow crude 5 mL column (GE Healthcare, Little Chalfont, UK) installed in an AKTA Purifier UPC 10 System (GE Healthcare, Sweden) at 4° C. under the following steps: column equilibration in 50 mL 0.1 M Tris pH 8, 0.3 M NaCl, 0.1% (v/v) Tween 20 at 2 mL/min; sample loading at 0.4 mL/min; column wash in 50 mL 0.1 M Tris pH 8, 0.3 M NaCl, 0.1% (v/v) Tween 20, 5 mM imidazole at 2 mL/min; elution in 100 mL 0.1 M Tris pH 8, 0.3 M NaCl, 0.1% (v/v) Tween 20, and a 10-500 mM imidazole gradient at 2 mL/min. Two mL fractions were individually collected. Protein absorbance at 280 nm was monitored throughout the purification procedure. Elution fractions showing absorbance peaks were collected and analysed through SDS-PAGE. Purified proteins (Seq ID NO 3 and 11, respectively) were quantified using Coomassie Plus Protein Assay (Pierce/Thermoscientific, Cramlington, UK) and desalted to remove any inhibitors/interferents using 10 mL Zeba Spin Desalting Columns MWCO 7K, (Pierce/Thermoscientific, Cramlington, UK) pre-equilibrated in 20 mM Potassium Phosphate buffer pH 7.
(§3) General reaction set up was carried out as previously described (Lenz & Zenk, 1995, FEBS 233:132-139). Substrates (S)-reticuline, 1,2-dehydroreticuline and coclaurine were purchased from TRC Chemicals (Toronto, Canada) and codeinone was supplied by MacFarlan-Smith (Edinburgh, UK). Assay reactions contained […], 5 μg oxidoreductase A or B preparation, 100 mM buffer covering a range of pH values (potassium phosphate pH 6-8, glycine-NaOH pH 9) and 75 μM substrate. Reactions were incubated for 2 h at 37° C. and immediately frozen at −80° C. Reactions were dried down to powder in speedvac Gene Vac EZ-2 plus (Ipswich, UK) at 40° C. and resuspended in 100 μL 1:1 Hexane:Ethanol (v/v), 0.1% Diethylamine (v/v). […]

[2] = Recombinant oxidoreductase enzyme assay (E. coli-expressed, purified), substrate codeinone; conditions: for nmol product formation at pH 6.0 / nmol product formation at pH 7.0 / nmol product formation at pH 8.0 / nmol product formation at pH 9.0: substrate codeinone
Method: as §1, §2
General reaction set up was carried out as previously described (Lenz & Zenk, 1995, FEBS 233:132-139). Substrates (S)-reticuline, 1,2-dehydroreticuline and coclaurine were purchased from TRC Chemicals (Toronto, Canada) and codeinone was supplied by MacFarlan-Smith (Edinburgh, UK). Assay reactions contained […], 5 μg oxidoreductase A or B preparation, 100 mM buffer covering a range of pH values (potassium phosphate pH 6-8, glycine-NaOH pH 9) and 75 μM substrate. Reactions were incubated for 2 h at 37° C. and immediately frozen at −80° C. Reactions were dried down to powder in speedvac Gene Vac EZ-2 plus (Ipswich, UK) at 40° C. and resuspended in 100 μL 1:1 Hexane:Ethanol (v/v), 0.1% Diethylamine (v/v).
Chiral separations were performed following the method previously described (Iwasa et al., 2009, Phytochem 70:198-206) and carried out on a TSP HPLC system equipped with a UV6000 LP detector, a P4000 pump and an AS 3000 autosampler (Thermo Separation Products/Thermoscientific, Waltham, Mass., USA) connected to a mass spectrometer LCQ Classic mass spectrometer (Finnigan Mat, San Jose, Calif., USA). A Lux 5μ Cellulose 3 250×4.6 mm column (Phenomenex, Macclesfield, UK) was used for separations. […]

[3] = Recombinant oxidoreductase enzyme assay (E. coli-expressed, purified), substrate (S)-reticuline
Method: as §1, §2, §3

[4] = Recombinant oxidoreductase enzyme assay (E. coli-expressed, purified), substrate coclaurine
Method: as §1, §2, §3

[5] = Enzyme assay on soluble/microsomal preparations of S. cerevisiae expressing STORR fusion or modules, substrate 1,2-dehydroreticuline; conditions: soluble or microsomal preparations from S. cerevisiae; 100 μM substrate, 1 mM NADPH, 37° C. 3 hours
Text: Genscript created synthetic DNA sequences were created for PsCPR [Genbank accession AAC05021, (Rosco A. et al. (1997) Arch. Biochem. Biophys. 348, 369-77), the full length STORR (CYP82Y2-Oxidoreductatse (“Oxired”)) protein, the N-terminal CYP82Y2 module and C-terminal oxidoreductase (Oxidoreductase) module, that were codon optimised for expression is Saccharomyces cerevisiae. The codon-optimized sequences are provided with the SEQ ID NO 30-33.
Expression vector pESC-TRP::soloxired was created by digesting the corresponding PCR product with NotI and PacI and inserting this behind the GAL10 promoter of pESC-TRP. pESC-TRP::CPR was created by digesting the corresponding PCR product with BamHI and XhoI and inserting this behind the GAL1 promoter of pESC-TRP. This was then used to created pESC-TRP::CPR::CYP82Y2 and pESC-TRP::CPR::CYP82Y2-Oxidoreductase. These plasmids were then transformed in S. cerevisiae G175 (Sorger D. et al. (2004) J. Biol. Chem. 279, 31190-6) using lithium acetate protocol (Geitz R. D. and Woods R. A. (2002) Methods in Enzymology 350, 87-96). Yeasts were cultivated in Synthetic Defined (SD) medium composed of 2% carbon source, 0.5% ammonium sulfate, 1.7 g L^−1 yeast nitrogen base (without amino acids and ammonium sulfate) and 1.92 g L^−1 or tryptophan drop-out supplement (Sigma-Aldrich, Gillingham, UK). Cultures grown using glucose as a carbon source were used to inoculate 200 ml cultures with raffinose as a carbon source to an OD 600 nm of 0.10 in 1 L conical flasks. […]
Enzymes assays were set up in 250 μL volumes containing final concentrations of 50 mM Bis-tris propane buffer, 1 mM NADPH and 100 μM of substrate. […] The extract was then dissolved in 100 μL of 50:50:0.1 hexane/ethanol/diethylamine and analysed by the chiral HPLC method to determine the relative amounts of (R)- and (S)-reticuline.
Poppy capsules were processed and analysed by UPLC-MS and R-scripts as previously described (“the standard method”; (Winzer T. et al. (2012) Science 336, 1704-8)). […]

[6] = NADPH dependent reduction, pH 6 to 9
[7] = product neopine, triplicate mean ± SD

B1: Oxidoreductase B: Recombinant His-tagged close homologue (96% amino acid identity) of oxidoreductase A (SEQ ID NO 11), expressed in E. coli (protein, listed as Papaver somniferum)
chain: MESSGVPVITLSSGKLMPVLGMGTFEKVGKGSERERLVILKAIEVGYRYFDTAAAYETEEVLGEAIAEALQLGLIKSRDELFISSMLWCTDAHPDRVLLALQNSLRNLKLEYLDLYMLPFPVSLKPGKITMDIQEEDICRMDYRSVWAAMEECQNLGFTKSIGVSNFSCKKLQELMATANIPPDVNQVEMSPAFQQKKLRDYCNANNILVSAVSILGSNGTPWGSNAVLGSEVLRKIAMAKGKSVAQVSMRWVYDQGASLVVKSFSEERLRENLNIFDWELTKEDHEKIGEIPQCRILSAYFLVSPNGPFKSQEELWDDEA
modifications: His tag
conversion of 1,2-dehydroreticuline to (R)-reticuline (in words) ([1]; pH 6 to 9): efficiently converted
nmol product formation at pH 6.0 ([1]; substrate dehydroreticuline, product (R)-reticuline, pH 6.0, triplicate mean ± SD): 0.148 ± 0.036 nmol
nmol product formation at pH 7.0 ([1]; substrate dehydroreticuline, product (R)-reticuline, pH 7.0, triplicate mean ± SD): 0.130 ± 0.021 nmol
nmol product formation at pH 8.0 ([1]; substrate dehydroreticuline, product (R)-reticuline, pH 8.0, triplicate mean ± SD): 0.164 ± 0.020 nmol
nmol product formation at pH 9.0 ([1]; substrate dehydroreticuline, product (R)-reticuline, pH 9.0, triplicate mean ± SD): 0.202 ± 0.026 nmol
formation of codeine from codeinone (in words) [2, 6]: did not form codeine
formation of neopine from codeinone (in words) [2, 6]: neopine production within pH values 6 to 8
nmol product formation at pH 6.0 ([2]; product codeine): 0.0 nmol
nmol product formation at pH 7.0 ([2]; product codeine): 0.0 nmol
nmol product formation at pH 8.0 ([2]; product codeine): 0.0 nmol
nmol product formation at pH 9.0 ([2]; product codeine, triplicate mean ± SD): 0.0 nmol
nmol product formation at pH 6.0 [2, 7]: 0.040 ± 0.020 nmol
nmol product formation at pH 7.0 [2, 7]: 0.005 ± 0.001 nmol
nmol product formation at pH 8.0 [2, 7]: 0.016 ± 0.008 nmol
nmol product formation at pH 9.0 ([2]; product neopine): 0.000 nmol
transformation of the substrate (S)-reticuline (in words) ([3]; pH 6 to 9): no transformation of the substrate
nmol product formation at pH 6.0 ([3]; substrate (S)-reticuline, expected product dehydroreticuline, pH 6.0): 0.0 nmol
nmol product formation at pH 7.0 ([3]; substrate (S)-reticuline, expected product dehydroreticuline, pH 7.0): 0.0 nmol
nmol product formation at pH 8.0 ([3]; substrate (S)-reticuline, expected product dehydroreticuline, pH 8.0): 0.0 nmol
nmol product formation at pH 9.0 ([3]; substrate (S)-reticuline, expected product dehydroreticuline, pH 9.0): 0.0 nmol
transformation of the substrate coclaurine (in words) ([4]; pH 6 to 9): no transformation of the substrate
nmol product formation at pH 6.0 ([4]; substrate coclaurine, no product observed, pH 6.0, 75 μM substrate, NADPH, 2 h 37° C., triplicate mean ± SD): 0.0 nmol
nmol product formation at pH 7.0 ([4]; substrate coclaurine, no product observed, pH 7.0): 0.0 nmol
nmol product formation at pH 8.0 ([4]; substrate coclaurine, no product observed, pH 8.0): 0.0 nmol
nmol product formation at pH 9.0 ([4]; substrate coclaurine, no product observed, pH 9.0): 0.0 nmol

B2: oxidoreductase module: C-terminal oxidoreductase module of STORR (codon optimized SEQ ID NO 33) expressed in S. cerevisiae (protein)
chain: MESSGVPVITLGSGKVMPVLGMGTFEKVGKGSERERLAILKAIEVGYRYFDTAAAYETEEVLGEAIAEALQLGLVKSRDELFISSMLWCTDAHADRVLLALQNSLRNLKLEYVDLYMLPFPASLKPGKITMDIPEEDICRMDYRSVWAAMEECQNLGFTKSIGVSNFSCKKLQELMATANIPPAVNQVEMSPAFQQKKLREYCNANNILVSAISVLGSNGTPWGSNAVLGSEVLKKIAMAKGKSVAQVSMRWVYEQGASLVVKSFSEERLRENLNIFDWELTKEDHEKIGEIPQCRILSAYFLVSPNGPFKSQEELWDDEA
modifications: Yeast codon optimised Oxidoreductase
conversion efficiency of 1,2-dehydroreticuline to (R)-reticuline [5]: 100%
